According to patent US20070292909:

How the values were obtained:
[1] = target: ECFP-(spacer) DEVD-keima 616
MiCy-DEVD-mKO = target: T1, MiCy-DEVD-mKO
T1 chain: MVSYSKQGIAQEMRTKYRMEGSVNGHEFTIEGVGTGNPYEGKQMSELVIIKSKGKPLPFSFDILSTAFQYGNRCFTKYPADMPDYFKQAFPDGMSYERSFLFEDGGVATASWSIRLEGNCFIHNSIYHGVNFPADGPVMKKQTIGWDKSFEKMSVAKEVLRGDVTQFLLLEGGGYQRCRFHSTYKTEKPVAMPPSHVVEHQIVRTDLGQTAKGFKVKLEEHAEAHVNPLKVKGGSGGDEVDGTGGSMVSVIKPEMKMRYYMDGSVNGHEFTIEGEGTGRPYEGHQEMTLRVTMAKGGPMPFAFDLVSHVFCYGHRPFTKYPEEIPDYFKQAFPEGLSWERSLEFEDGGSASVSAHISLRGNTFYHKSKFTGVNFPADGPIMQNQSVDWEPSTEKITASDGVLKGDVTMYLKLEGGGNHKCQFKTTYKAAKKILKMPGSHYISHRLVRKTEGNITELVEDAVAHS

[2] = target: keima 616-(spacer) DEVD-ECFP

B1: Caspase-3 (protein)
chain: SGISLDNSYKMDYPEMGLCIIINNKNFHKSTGMTSRSGTDVDAANLRETFRNLKYEVRNKNDLTREEIVELMRDVSKEDHSKRSSFVCVLLSHGEEGIIFGTNGPVDLKKITNFFRGDRCRSLTGKPKLFIIQACRGTELDCGIETDSGVDDDMACHKIPVEADFLYAYSTAPGYYSWRNSKDGSWFIQSLCAMLKQYADKLEFMHILTRVNRKVATEFESFSFDATFHAKKQIPCIVSMLTKELYFYH
- amplitude of the fluorescence cross-correlation function, Gcross(0) [1]: A rapid decrease in Gcross(0) was observed as a result of addition of Caspase-3
- fluorescence spectrum (FRET, excitation at 440 nm) before and after the reaction with Caspase-3 (MiCy-DEVD-mKO): after the addition thereof, FRET disappeared due to the cleavage of the linker and the fluorescence peak (559 nm) of mKO thereby disappeared, so that only the fluorescence peak (495 nm) of MiCy remained
- SDS-PAGE and Native-PAGE bands after the reaction with Caspase-3 [2]: When keima 616-DEVD-ECFP was reacted with Caspase-3, the bands with the sizes of keima 616 and ECFP could be confirmed
- amplitude of the fluorescence cross-correlation function, Gcross(0) [2]: A rapid decrease in Gcross(0) was observed as a result of addition of Caspase-3
- amplitude of the fluorescence cross-correlation function, Gcross(0) (EGFP-DEVD-mRFP1 (x2)): A decrease in Gcross(0) was observed as a result of addition of Caspase-3
